{"source": "the Human Domainome abundance scans (Beltran et al. 2025)", "parents": {"B1": {"name": "Transcription elongation factor A N-terminal and central domain-containing protein, residues 30 to 77; numbered along this chain, Q8N8B7 (parent)", "chain": "LTELETIYVTKEHLQETDVVRAVYRVLKNCPSVALKKKAKCLLSKWKA"}}, "note": "± gives the uncertainty stated by the source."}
{"variants_of": "B1", "experiment": "abundance fitness (aPCA) (normalised: wild type 0, dead -1); higher = more abundant; growth selection in yeast, the domain comes from the species named", "conditions": "Homo sapiens"}
{"variant": "K11S", "abundance fitness": "-0.016 ± 0.086"}
{"variant": "K11M", "abundance fitness": "-0.246 ± 0.16"}
{"variant": "K11I", "abundance fitness": "-0.08 ± 0.12"}
{"variant": "K11N", "abundance fitness": "-0.627 ± 0.24"}
{"variant": "K11Q", "abundance fitness": "-0.184 ± 0.13"}
{"variant": "L4C", "abundance fitness": "-0.51 ± 0.095"}
{"variant": "L4E", "abundance fitness": "0.173 ± 0.072"}
{"variant": "L4H", "abundance fitness": "0.025 ± 0.089"}
{"variant": "L4T", "abundance fitness": "0.269 ± 0.1"}
{"variant": "L4V", "abundance fitness": "-0.23 ± 0.072"}
{"variant": "L4Y", "abundance fitness": "-0.325 ± 0.12"}
{"variant": "L4N", "abundance fitness": "0.469 ± 0.1"}
{"variant": "E16H", "abundance fitness": "-0.153 ± 0.26"}
{"variant": "E16G", "abundance fitness": "-0.008 ± 0.084"}
{"variant": "E16T", "abundance fitness": "-0.116 ± 0.12"}
{"variant": "W46L", "abundance fitness": "0.022 ± 0.079"}
{"variant": "W46I", "abundance fitness": "0.258 ± 0.17"}
{"variant": "W46S", "abundance fitness": "-0.96 ± 0.14"}
{"variant": "W46T", "abundance fitness": "-0.705 ± 0.18"}
{"variant": "W46C", "abundance fitness": "-0.313 ± 0.12"}
{"variant": "W46G", "abundance fitness": "-1.07 ± 0.14"}
{"variant": "W46A", "abundance fitness": "0.105 ± 0.097"}
{"variant": "A22W", "abundance fitness": "0.256 ± 0.076"}
{"variant": "A22F", "abundance fitness": "-0.308 ± 0.13"}
{"variant": "A22S", "abundance fitness": "-0.007 ± 0.09"}
{"variant": "A22H", "abundance fitness": "-0.328 ± 0.15"}
{"variant": "A22Y", "abundance fitness": "-0.074 ± 0.11"}
{"variant": "A22E", "abundance fitness": "-0.328 ± 0.09"}
{"variant": "A22P", "abundance fitness": "-0.143 ± 0.096"}
{"variant": "Q15E", "abundance fitness": "-0.016 ± 0.1"}
{"variant": "Q15N", "abundance fitness": "-0.388 ± 0.16"}
{"variant": "Q15Y", "abundance fitness": "-0.562 ± 0.18"}
{"variant": "K47S", "abundance fitness": "-0.967 ± 0.19"}
{"variant": "K47I", "abundance fitness": "-0.47 ± 0.23"}
{"variant": "K47A", "abundance fitness": "-0.739 ± 0.17"}
{"variant": "K47F", "abundance fitness": "0.101 ± 0.44"}
{"variant": "K47D", "abundance fitness": "-0.762 ± 0.2"}
{"variant": "K47W", "abundance fitness": "0.025 ± 0.13"}
{"variant": "K47P", "abundance fitness": "-0.334 ± 0.27"}
{"variant": "V9Q", "abundance fitness": "0.265 ± 0.096"}
{"variant": "V9L", "abundance fitness": "-0.229 ± 0.082"}
{"variant": "V9C", "abundance fitness": "-0.172 ± 0.1"}
{"variant": "V9R", "abundance fitness": "0.155 ± 0.068"}
{"variant": "V9Y", "abundance fitness": "-0.147 ± 0.12"}
{"variant": "V9S", "abundance fitness": "0.085 ± 0.085"}
{"variant": "V9F", "abundance fitness": "0.045 ± 0.16"}
{"variant": "V9I", "abundance fitness": "-0.163 ± 0.086"}
{"variant": "V9G", "abundance fitness": "0.061 ± 0.072"}
{"variant": "Y24C", "abundance fitness": "-0.003 ± 0.1"}
{"variant": "Y24H", "abundance fitness": "-0.468 ± 0.16"}
{"variant": "Y24Q", "abundance fitness": "-0.223 ± 0.11"}
{"variant": "Y24V", "abundance fitness": "0.11 ± 0.07"}
{"variant": "Y24P", "abundance fitness": "-0.72 ± 0.17"}
{"variant": "Y24F", "abundance fitness": "0.172 ± 0.13"}
{"variant": "T6S", "abundance fitness": "0.12 ± 0.082"}
{"variant": "T6C", "abundance fitness": "-0.262 ± 0.1"}
{"variant": "T6D", "abundance fitness": "0.094 ± 0.1"}
{"variant": "T6A", "abundance fitness": "-0.355 ± 0.086"}
{"variant": "N29T", "abundance fitness": "0.024 ± 0.11"}
{"variant": "N29S", "abundance fitness": "-0.144 ± 0.076"}
{"variant": "N29A", "abundance fitness": "-0.086 ± 0.08"}
{"variant": "N29M", "abundance fitness": "0.052 ± 0.1"}
{"variant": "T17G", "abundance fitness": "-0.092 ± 0.072"}
{"variant": "T17D", "abundance fitness": "-0.368 ± 0.17"}
{"variant": "T17W", "abundance fitness": "-0.142 ± 0.11"}
{"variant": "T17R", "abundance fitness": "-0.099 ± 0.072"}
{"variant": "T17Q", "abundance fitness": "-0.649 ± 0.18"}
{"variant": "T17Y", "abundance fitness": "-0.784 ± 0.27"}
{"variant": "T17N", "abundance fitness": "0.149 ± 0.13"}
{"variant": "T17L", "abundance fitness": "-0.892 ± 0.14"}
{"variant": "C41F", "abundance fitness": "0.005 ± 0.22"}
{"variant": "C41N", "abundance fitness": "0.268 ± 0.38"}
{"variant": "C41D", "abundance fitness": "-0.182 ± 0.18"}
{"variant": "C41T", "abundance fitness": "-0.073 ± 0.21"}
{"variant": "C41S", "abundance fitness": "0.093 ± 0.11"}
{"variant": "C41H", "abundance fitness": "0.239 ± 0.12"}
{"variant": "C41V", "abundance fitness": "0.042 ± 0.087"}
{"variant": "C41L", "abundance fitness": "0.047 ± 0.097"}
{"variant": "C41P", "abundance fitness": "-1.22 ± 0.26"}
{"variant": "C41E", "abundance fitness": "0.019 ± 0.17"}
{"variant": "C41K", "abundance fitness": "0.171 ± 0.13"}
{"variant": "S32P", "abundance fitness": "0.039 ± 0.1"}
{"variant": "S32F", "abundance fitness": "0.211 ± 0.13"}
